± gives the uncertainty stated by the source.
Assay: self-splicing fitness, log relative to wild type (ln ratio); higher = more splicing; Tetrahymena group I intron in knt gene, E. coli kanamycin selection, DiMSum; sequences stand for … in CUCUCU…GGAGGGAAAAGUUAUCAGGCAUGCACCUGGUAGCUAGUCUUUAAACCAAUAGAUUGCAUCGGUUUAAAAGGCAAGACCGUCAAAUUGCGGGAAAGGGGUCAACAGCCGUUCAGUACCAAGUCUCAGGGGAAACUUUGAGAUGGCCUUGCAAAGGGUAUGGUAAUAAGCUGACGGACAUGGUCCUAACCACGCAGCCAAGUCCUAAGUCAACAGAUCUUCUGUUGAUAUGGAUGCAGUUCACAGACUAAAUGUCGGUCGGGGAAGAUGUAUUCUUCUCAUAAGAUAUAGUCGGACCUCUCCUUAAUGGGAGCUAGCGGAUGAAGUGAUGCAACACUGGAGCCGCUGGGAACUAAUUUGUAUGCGAAAGUAUAUUGAUUAGUUUUGGAGUACUCGUGGUCG
Procedure, shortened: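 Pooled colonies went to amplicon sequencing on an Illumina HiSeq 2500 after six replicate transformations. The plates were LB agar with 100 μg/mL carbenicillin, 50 μM IPTG and 0.2% rhamnose, with or without 25 μg/mL kanamycin, incubated overnight at 37°C or 30°C. The E. coli BL21(DE3) library had all eight P1ex-region intron nucleotides randomised, the intron placed in the knt kanamycin-resistance gene on pET-22b(+). DiMSum fitness is the error-weighted combination of replicate fold changes, kanamycin against none, normalised to wild type.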

| Sequence | self-splicing fitness (ln) (30 °C) | self-splicing fitness (ln) (37 °C) |
| --- | --- | --- |
| UCCAAGCAAUAUUACGAGAA | -0.789 ± 0.16 | -0.569 ± 0.17 |
| UCCAAGCAAUAUUACGAGAG | -2.32 ± 0.12 | -1.85 ± 0.14 |
| UCCAAGCAAUAUUACGAGCC | -2.51 ± 0.49 | -1.88 ± 0.29 |
| UCCAAGCAAUAUUACGAGUC | -3.66 ± 0.19 | -2.97 ± 0.24 |
| UCCAAGCAAUAUUACGAUAC | -3.99 ± 0.42 | -1.11 ± 0.3 |
| UCCAAGCAAUAUUACGAUCA | -1.1 ± 0.14 | -0.861 ± 0.15 |
| UCCAAGCAAUAUUACGAUGU | -1.37 ± 0.057 | -0.338 ± 0.082 |
| UCCAAGCAAUAUUACGCAAU | -3.44 ± 0.22 | -2.71 ± 0.26 |
| UCCAAGCAAUAUUACGCCUU | -4.12 ± 0.22 | -2.98 ± 0.21 |
| UCCAAGCAAUAUUACGGAGA | -0.684 ± 0.087 | -0.415 ± 0.092 |
| UCCAAGCAAUAUUACGGAUU | -4.35 ± 0.2 | -3.1 ± 0.18 |
| UCCAAGCAAUAUUACGGCAG | -4.85 ± 0.46 | -2.84 ± 0.28 |
| UCCAAGCAAUAUUACGGCUG | -2.69 ± 0.15 | -3.33 ± 0.22 |
| UCCAAGCAAUAUUACGGGCU | -3.43 ± 0.14 | -1.95 ± 0.12 |
| UCCAAGCAAUAUUACGGUAG | -4.7 ± 0.41 | -2.21 ± 0.16 |
| UCCAAGCAAUAUUACGUCGA | -0.163 ± 0.075 | 0.376 ± 0.1 |
| UCCAAGCAAUAUUACGUGUA | -0.565 ± 0.043 | 0.504 ± 0.057 |
| UCCAAGCAAUAUUACGUUCG | -3.57 ± 0.27 | -2.2 ± 0.21 |
| UCCCAGCAAUAUUACGAACU | -3.52 ± 0.33 | -2.92 ± 0.43 |
| UCCCAGCAAUAUUACGAAGC | -3.98 ± 0.42 | -1.71 ± 0.24 |
| UCCCAGCAAUAUUACGACGU | -1.53 ± 0.071 | -0.16 ± 0.084 |
| UCCCAGCAAUAUUACGAUGC | -4.03 ± 0.3 | -3.29 ± 0.32 |
| UCCCAGCAAUAUUACGCCGC | -4.73 ± 0.32 | -3.05 ± 0.27 |
| UCCCAGCAAUAUUACGCGAA | -2.11 ± 0.16 | -1.07 ± 0.14 |
| UCCCAGCAAUAUUACGCGCG | -3.27 ± 0.17 | -2.98 ± 0.24 |

| Sequence | self-splicing fitness (ln) (30 °C) | self-splicing fitness (ln) (37 °C) |
| --- | --- | --- |
| UCCCAGCAAUAUUACGCUGU | -3.99 ± 0.23 | -2.18 ± 0.23 |
| UCCCAGCAAUAUUACGGCAC | -3.11 ± 0.12 | -1.88 ± 0.15 |
| UCCCAGCAAUAUUACGGCCA | -0.679 ± 0.095 | -0.115 ± 0.12 |
| UCCCAGCAAUAUUACGGCUC | -2.83 ± 0.14 | -2.31 ± 0.24 |
| UCCCAGCAAUAUUACGGGCC | -3.03 ± 0.22 | -1.7 ± 0.18 |
| UCCCAGCAAUAUUACGGGGG | -4 ± 0.18 | -3.66 ± 0.33 |
| UCCCAGCAAUAUUACGGGUU | -2.48 ± 0.07 | -1.54 ± 0.079 |
| UCCCAGCAAUAUUACGUAUU | -2.91 ± 0.2 | -3.28 ± 0.28 |
| UCCCAGCAAUAUUACGUCAA | -2.71 ± 0.18 | -1.13 ± 0.16 |
| UCCCAGCAAUAUUACGUCAG | -3.74 ± 0.16 | -2.83 ± 0.16 |
| UCCCAGCAAUAUUACGUGAC | -2.74 ± 0.15 | -3.06 ± 0.32 |
| UCCCAGCAAUAUUACGUGCG | -3.71 ± 0.15 | -2.93 ± 0.17 |
| UCCCAGCAAUAUUACGUGGA | -3.08 ± 0.14 | -1.95 ± 0.15 |
| UCCCAGCAAUAUUACGUGUG | -3.46 ± 0.094 | -2.32 ± 0.093 |
| UCCCAGCAAUAUUACGUUAC | -3.88 ± 0.22 | -2.72 ± 0.27 |
| UCCCAGCAAUAUUACGUUGC | -3.5 ± 0.27 | -2.06 ± 0.27 |
| UCCCAGCAAUAUUACGUUUC | -4.35 ± 0.34 | -2.4 ± 0.28 |
| UCCCAGCAAUAUUACGUUUG | -3.67 ± 0.11 | -2.91 ± 0.15 |
| UCCGAGCAAUAUUACGAACU | – | -2.3 ± 0.32 |
| UCCGAGCAAUAUUACGAAGA | -1.62 ± 0.21 | -1.12 ± 0.18 |
| UCCGAGCAAUAUUACGACAG | -3.18 ± 0.3 | -2.55 ± 0.3 |
| UCCGAGCAAUAUUACGACAU | -3.93 ± 0.031 | -2.98 ± 0.043 |
| UCCGAGCAAUAUUACGACGG | -1.46 ± 0.11 | -0.111 ± 0.17 |
| UCCGAGCAAUAUUACGAGCU | – | -2.68 ± 0.48 |
| UCCGAGCAAUAUUACGAGUA | -1.98 ± 0.16 | -1.1 ± 0.12 |

| Sequence | self-splicing fitness (ln) (30 °C) | self-splicing fitness (ln) (37 °C) |
| --- | --- | --- |
| UCCGAGCAAUAUUACGCAAA | -3.59 ± 0.33 | -2.51 ± 0.31 |
| UCCGAGCAAUAUUACGCAGU | -2.79 ± 0.33 | -2.31 ± 0.28 |
| UCCGAGCAAUAUUACGCAUU | -2.2 ± 0.19 | -3.08 ± 0.37 |
| UCCGAGCAAUAUUACGCUAA | – | -2.86 ± 0.32 |
| UCCGAGCAAUAUUACGCUCA | -3.08 ± 0.32 | -2.3 ± 0.47 |
| UCCGAGCAAUAUUACGCUCU | -3.31 ± 0.4 | – |
| UCCGAGCAAUAUUACGCUGC | -2.96 ± 0.24 | -1.84 ± 0.31 |
| UCCGAGCAAUAUUACGGCCG | -4.07 ± 0.34 | – |
| UCCGAGCAAUAUUACGGGCC | -3.8 ± 0.3 | -2.94 ± 0.35 |
| UCCGAGCAAUAUUACGGUCU | -2.4 ± 0.15 | -1.58 ± 0.13 |
| UCCGAGCAAUAUUACGUAGA | -2.09 ± 0.14 | -1.42 ± 0.2 |
| UCCGAGCAAUAUUACGUAGC | -3.33 ± 0.23 | -2.14 ± 0.28 |
| UCCGAGCAAUAUUACGUCCA | -2.89 ± 0.38 | -2.37 ± 0.34 |
| UCCGAGCAAUAUUACGUCUC | -2.26 ± 0.21 | -2.99 ± 0.43 |
| UCCGAGCAAUAUUACGUGCA | -1.45 ± 0.15 | -1.47 ± 0.12 |
| UCCGAGCAAUAUUACGUGCC | -3.03 ± 0.26 | -2.97 ± 0.35 |
| UCCGAGCAAUAUUACGUGCU | -3.32 ± 0.26 | -2.61 ± 0.29 |
| UCCGAGCAAUAUUACGUUCG | -2.69 ± 0.49 | -1.78 ± 0.42 |
| UCCGAGCAAUAUUACGUUGC | -3.03 ± 0.21 | -2.16 ± 0.24 |
| UCCUAGCAAUAUUACGAAGG | -2.91 ± 0.15 | -2.1 ± 0.19 |
| UCCUAGCAAUAUUACGAGCG | -1.5 ± 0.099 | -1.15 ± 0.14 |
| UCCUAGCAAUAUUACGAUAU | -3.78 ± 0.28 | -2.72 ± 0.23 |
| UCCUAGCAAUAUUACGAUCG | -3.36 ± 0.21 | -2.33 ± 0.26 |
| UCCUAGCAAUAUUACGCGCA | -1.31 ± 0.1 | -0.0853 ± 0.097 |
| UCCUAGCAAUAUUACGCGGG | -3.2 ± 0.1 | -2.66 ± 0.14 |

| Sequence | self-splicing fitness (ln) (30 °C) | self-splicing fitness (ln) (37 °C) |
| --- | --- | --- |
| UCCUAGCAAUAUUACGCGUC | -3.53 ± 0.35 | -3.53 ± 0.42 |
| UCCUAGCAAUAUUACGGACA | -2.68 ± 0.37 | -2.29 ± 0.31 |
| UCCUAGCAAUAUUACGGAUA | -2.52 ± 0.2 | -0.547 ± 0.13 |
| UCCUAGCAAUAUUACGGCCA | -3.17 ± 0.15 | -1.74 ± 0.11 |
| UCCUAGCAAUAUUACGGCUA | – | -2.35 ± 0.27 |
| UCCUAGCAAUAUUACGGUAU | -3.23 ± 0.16 | -1.76 ± 0.18 |
| UCCUAGCAAUAUUACGGUCU | -1.59 ± 0.06 | -0.444 ± 0.07 |
| UCCUAGCAAUAUUACGUACG | -3.14 ± 0.18 | -1.78 ± 0.2 |
| UCCUAGCAAUAUUACGUAUC | -2.65 ± 0.14 | -2.44 ± 0.21 |
| UCCUAGCAAUAUUACGUCGA | -0.0892 ± 0.07 | 0.0864 ± 0.078 |
| UCCUAGCAAUAUUACGUGCG | -3.5 ± 0.2 | -1.98 ± 0.16 |
| UCCUAGCAAUAUUACGUUUU | -3.41 ± 0.21 | -2.69 ± 0.2 |
| UCGAAGCAAUAUUACGAAUA | -1.96 ± 0.2 | -1.76 ± 0.3 |
| UCGAAGCAAUAUUACGACAC | -2.44 ± 0.41 | -2.26 ± 0.38 |
| UCGAAGCAAUAUUACGACUG | -1.11 ± 0.095 | -0.774 ± 0.13 |
| UCGAAGCAAUAUUACGAGGA | -3.21 ± 0.39 | -1.19 ± 0.27 |
| UCGAAGCAAUAUUACGAUAA | -2.17 ± 0.13 | -1.13 ± 0.13 |
| UCGAAGCAAUAUUACGCGGG | -2.18 ± 0.19 | -1.68 ± 0.19 |
| UCGAAGCAAUAUUACGGACG | -0.371 ± 0.13 | 0.158 ± 0.12 |
| UCGAAGCAAUAUUACGGAUC | -3.14 ± 0.23 | -2.64 ± 0.37 |
| UCGAAGCAAUAUUACGGCCU | -2.16 ± 0.22 | -1.77 ± 0.21 |
| UCGAAGCAAUAUUACGGCUA | -2.29 ± 0.15 | -1.41 ± 0.099 |

— the supplement of paper PMC7877785
